Experimental data from patent US20250382344A1, “Soluble GLP1/GIP/NPY2 Receptor Triple Agonists” (Boehringer Ingelheim International GmH, priority 2024, published 2025).
Changes are numbered by the printed parent chain. *1 amine or outer side, *2 acyl side, *3 side chain or, on linkers, in order; H or OH if unused. Where no end group is shown, it is not given here. Side-chain parts run from the residue outwards. [ ]: non-standard residue; d: D form. The star is where a group is joined. C20 diacid = O=C(O)CCCCCCCCCCCCCCCCCCC(=O)*; C18 diacid = O=C(O)CCCCCCCCCCCCCCCCC(=O)*; γGlu = O=C(O)[C@H](CCC(=O)[*:2])N[*:1]; εLys = N[C@@H](CCCCN[*:1])C(=O)[*:2]; Aib = CC(C)(N)C(=O)O

T1: human GIP receptor (human, UniProt P48546 22-466)
T1 sequence (looked up): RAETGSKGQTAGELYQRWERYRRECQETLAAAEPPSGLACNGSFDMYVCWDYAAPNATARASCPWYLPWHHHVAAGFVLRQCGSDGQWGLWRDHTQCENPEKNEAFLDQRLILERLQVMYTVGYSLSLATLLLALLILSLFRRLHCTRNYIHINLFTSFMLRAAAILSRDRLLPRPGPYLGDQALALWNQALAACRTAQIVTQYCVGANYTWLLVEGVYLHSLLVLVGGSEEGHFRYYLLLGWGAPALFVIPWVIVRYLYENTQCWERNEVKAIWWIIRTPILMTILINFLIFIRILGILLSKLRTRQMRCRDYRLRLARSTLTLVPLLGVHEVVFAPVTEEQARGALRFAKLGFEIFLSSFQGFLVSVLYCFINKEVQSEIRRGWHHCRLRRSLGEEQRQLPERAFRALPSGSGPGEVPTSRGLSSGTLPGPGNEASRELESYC

T2: human neuropeptide Y2 receptor (human, UniProt P49146 1-381)
T2 sequence (looked up): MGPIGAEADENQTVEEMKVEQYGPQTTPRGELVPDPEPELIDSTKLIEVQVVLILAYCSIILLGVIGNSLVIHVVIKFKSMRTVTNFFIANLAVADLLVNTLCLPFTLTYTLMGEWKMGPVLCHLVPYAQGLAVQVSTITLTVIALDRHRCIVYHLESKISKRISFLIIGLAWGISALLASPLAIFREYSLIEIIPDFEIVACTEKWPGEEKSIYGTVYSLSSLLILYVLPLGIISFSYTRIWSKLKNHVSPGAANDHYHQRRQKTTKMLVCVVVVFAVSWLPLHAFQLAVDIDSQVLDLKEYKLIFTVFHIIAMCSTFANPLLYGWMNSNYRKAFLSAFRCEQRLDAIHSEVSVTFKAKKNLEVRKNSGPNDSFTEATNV

T3: human GIP receptor (human, UniProt P48546 22-466)
T3 sequence (looked up): T1 sequence (looked up)

T4: human neuropeptide Y2 receptor (human, UniProt P49146 1-381)
T4 sequence (looked up): T2 sequence (looked up)

B1: Compound 21 (peptide)
peptide: YXEGTFTSDLSIXLEKQAQXAFIRHLINKXTRQRY
modifications: Aib at 2, 13, 20, 30; Lys29 epsilon-amino acylated with C20DA-gGlu-gGlu-gGlu-gGlu-gGlu-gGlu-eLys; C-terminal amide
B2: Compound 36 (peptide)
peptide: B1 peptide with L10Y, A18E, I23V
modifications: Aib at 2, 13, 20, 30; Lys29 epsilon-amino acylated with C18DA-gGlu-gGlu-gGlu-gGlu-gGlu-gGlu-eLys; C-terminal amide
B3: Compound 28 (peptide)
peptide: B1 peptide with L10Y, Q17E, I23V
modifications: Aib at 2, 13, 20, 30; Lys29 epsilon-amino acylated with C20DA-gGlu-gGlu-gGlu-gGlu-gGlu-gGlu-eLys; C-terminal amide
B4: Compound 7 (peptide)
peptide: B1 peptide with L10Y, I23V, X30L
modifications: Aib at 2, 13, 20; Lys29 epsilon-amino acylated with C18DA-gGlu-gGlu-gGlu-gGlu-gGlu-OEG; C-terminal amide
B5: Compound 72 (peptide)
peptide: B1 peptide with L10Y, I23V
modifications: Aib at 2, 13, 20, 30; ArgMe at 34; Lys29 epsilon-amino acylated with C18DA-gGlu-gGlu-gGlu-gGlu-gGlu-gGlu-eLys; C-terminal amide
B6: Compound 22 (peptide)
peptide: B1 peptide with L10Y, E15D
modifications: Aib at 2, 20, 30; aMeL at 13; Lys29 epsilon-amino acylated with C20DA-gGlu-gGlu-gGlu-gGlu-gGlu-gGlu-eLys; C-terminal amide
B7: Compound 33 (peptide)
peptide: B1 peptide with L10Y, E15D, Q17I, I23V
modifications: Aib at 2, 13, 20, 30; Lys29 epsilon-amino acylated with C18DA-gGlu-gGlu-gGlu-gGlu-gGlu-gGlu-eLys; C-terminal amide
B8: Compound 42 (peptide)
peptide: B1 peptide with L10Y, K16Q, I23V
modifications: Aib at 2, 13, 20, 30; Lys29 epsilon-amino acylated with C18DA-gGlu-gGlu-gGlu-gGlu-gGlu; C-terminal amide
B9: Compound 54 (peptide)
peptide: B1 peptide with T5E, L10Y, I23V
modifications: Aib at 2, 13, 20, 30; Lys29 epsilon-amino acylated with C18DA-gGlu-gGlu-gGlu-gGlu-gGlu-gGlu-eLys; C-terminal amide
B10: Compound 85 (peptide)
peptide: B1 peptide with T5A, L10Y, I23V
modifications: Aib at 2, 13, 20, 30; Lys29 epsilon-amino acylated with C18DA-gGlu-gGlu-gGlu-gGlu-gGlu-gGlu-eLys; C-terminal amide
B11: Compound 27 (peptide)
peptide: B1 peptide with L10Y, I23V, X30L
modifications: Aib at 2, 13, 20; Lys29 epsilon-amino acylated with C20DA-gGlu-gGlu-gGlu-gGlu-gGlu-gGlu-eLys; C-terminal amide
B12: Compound 41 (peptide)
peptide: B1 peptide with L10Y, I23V, X30I
modifications: Aib at 2, 13, 20; Lys29 epsilon-amino acylated with C18DA-gGlu-gGlu-gGlu-gGlu-gGlu; C-terminal amide
B13: Compound 45 (peptide)
peptide: B1 peptide with L10Y, A21E, I23V, X30L
modifications: Aib at 2, 13, 20; Lys29 epsilon-amino acylated with C18DA-gGlu-gGlu-gGlu-gGlu-gGlu-AHX; C-terminal amide
B14: Compound 67 (peptide)
peptide: B1 peptide with L10Y, E15D, I23V
modifications: Aib at 2, 20, 30; aMeL at 13; Lys29 epsilon-amino acylated with C18DA-gGlu-gGlu-gGlu-gGlu-gGlu-gGlu-eLys; C-terminal amide
B15: Compound 156 (peptide)
peptide: B1 peptide with L10Y, I12A, I23V
modifications: Aib at 2, 13, 20, 30; Lys29 epsilon-amino: C18DA-gGlu-gGlu-gGlu-gGlu-gGlu-gGlu-eLys; C-terminal amide
B16: Compound 37 (peptide)
peptide: B1 peptide with L10Y, I23L
modifications: Aib at 2, 13, 20, 30; Lys29 epsilon-amino acylated with C18DA-gGlu-gGlu-gGlu-gGlu-gGlu-gGlu-eLys; C-terminal amide

Key:
Experiment in all cases: cell-based or functional assay
human GLP-1 receptor [1] = biological target: human GLP-1 receptor (human, UniProt P43220 24-463)
human GIP receptor [2] = biological target: T1, human GIP receptor
[3] = biological target: T2, human neuropeptide Y2 receptor
human GLP-1 receptor [4] = biological target: human GLP-1 receptor (human, UniProt P43220 24-463); remark: listed apart in the source
human GIP receptor [5] = biological target: T3, human GIP receptor; remark: listed apart in the source
[6] = biological target: T4, human neuropeptide Y2 receptor; remark: listed apart in the source

| Binder | EC50, CreLuc reporter, 0.5% hP (human GLP-1 receptor [1]) [nM] | EC50, CreLuc reporter, 100% hP (human GLP-1 receptor [1]) [nM] | EC50, CreLuc reporter, 0.5% hP (human GIP receptor [2]) [nM] | EC50, CreLuc reporter, 100% hP (human GIP receptor [2]) [nM] | EC50, CreLuc reporter, 100% hP [3] [nM] | EC50, CreLuc reporter, 0.5% hP [3] [nM] | also measured |
| --- | --- | --- | --- | --- | --- | --- | --- |
| Y[Aib]EGTFTSDLSI[Aib]LEKQAQ[Aib]AFVRHLINK([γGlu-γGlu-γGlu-γGlu-γGlu-γGlu-C20 diacid])[Aib]TRQRY-NH2 [Compound 51] | 4.5 | 16.3 | 0.5 | 13.8 |  |  |  |
| Y[Aib]EGTFTSDYSI[Aib]LEKQAQ[Aib]AFVRHLINK([γGlu-γGlu-εLys-γGlu-γGlu-γGlu-γGlu-C20 diacid])[Aib]TRQRY-NH2 [Compound 52] | 3.3 |  |  |  | 152 |  |  |
| B1 | 4.8 | 13.9 | 0.2 | 5.6 | 111 | 6.5 |  |
| B2 |  | 16.9 | 8.8 | 41.4 | 95.2 | 30.1 |  |
| B3 | 8 | 14.8 | 19.3 | 208 | 297 | 24 |  |
| B4 |  | 7.9 |  |  | 80.6 | 12.4 |  |
| B5 | 0.6 |  |  |  |  |  |  |
| B6 | 0.2 | 0.6 | 0.1 |  | 72 | 8.8 |  |
| B7 | 0.1 | 1 | 0.7 | 18.7 |  |  |  |
| B8 | 0.9 | 14.5 |  |  | 704 | 81.4 |  |
| B9 | 3.4 | 14.4 |  |  | 38.3 |  |  |
| B10 | 10.4 | 14.5 |  |  | 16.2 |  |  |
| B11 |  | 20.8 | 0.6 | 16.3 | 69.1 |  |  |
| B12 | 0.9 | 5 | 0.3 | 7.1 | 71.3 | 49.2 |  |
| B13 | 0.5 |  | 0.3 | 19.6 | 224 | 19.8 |  |
| B14 | 0.1 | 0.6 | 0.1 | 1.7 | 112 | 18.1 |  |
| B15 |  |  |  |  |  |  | EC50, CreLuc reporter, 0.5% hP (human GLP-1 receptor [4]): 7 nM; EC50, CreLuc reporter, 100% hP (human GLP-1 receptor [4]): 33.1 nM; EC50, CreLuc reporter, 0.5% hP (human GIP receptor [5]): 0.8 nM; EC50, CreLuc reporter, 100% hP (human GIP receptor [5]): 14.8 nM; EC50, CreLuc reporter, 0.5% hP [6]: 16.3 nM; EC50, CreLuc reporter, 100% hP [6]: 44.1 nM |
| B16 | 5.8 | 9.1 |  | 15.5 | 41.3 | 11.9 |  |
| Y[Aib]EGTFTSDYSI[Aib]LEKQAQ[Aib]EFVRHLINK([γGlu-γGlu-γGlu-γGlu-γGlu-γGlu-C18 diacid])[Aib]TRQRY-NH2 [Compound 56] |  | 7.1 | 0.4 | 19.3 |  |  |  |
| Y[Aib]EGTFTSDYSI[Aib]LEKQAQ[Aib]AFVRHLINK([γGlu-γGlu-γGlu-γGlu-γGlu-γGlu-C20 diacid])[Aib]TRQRY-NH2 [Compound 3] | 3 | 13.9 | 0.7 |  | 147 | 37.9 |  |
| Y[Aib]EGTFTSDYSI[Aib]LEKQAQ[Aib]AFVRHLINK([γDab-γGlu-γGlu-γGlu-γGlu-γGlu-γGlu-C20 diacid])[Aib]TRQRY-NH2 [Compound 46] |  | 5.3 | 0.8 | 7.2 | 70.5 | 28.4 |  |
| Y[Aib]EGTFTSDYSI[Aib]LEEEAQ[Aib]AFVRHLINK([γGlu-γGlu-γGlu-γGlu-C18 diacid])[Aib]TRQRY-NH2 [Compound 25] | 0.7 | 2 |  |  | 437 | 89.2 |  |
| Y[Aib]EGTFTSDYSI[Aib]LDQQAQ[Aib]AFVRHLINK([εLys-γGlu-γGlu-γGlu-γGlu-γGlu-C18 diacid])[Aib]TRQRY-NH2 [Compound 70] | 0.2 |  |  |  | 119 | 12.8 |  |
| Y[Aib]EGTFTSDYSI[Aib]LEKQAQ[Aib]AFVRHLINK([γGlu-γGlu-γGlu-γGlu-C18 diacid])[Aib]TRQRY-NH2 [Compound 77] |  | 1.8 |  |  |  |  |  |
| Y[Aib]EGTFTSDYSIALEKQAQ[Aib]AFVRHLINK([γGlu-γGlu-γGlu-γGlu-γGlu-γGlu-C20 diacid])[Aib]TRQRY-NH2 [Compound 29] | 5.5 | 33 |  |  | 180 | 41.3 |  |
| Y[Aib]EGTFTSDYSI[Aib]LEEQAQ[Aib]AFVRHLINK([εLys-γGlu-γGlu-γGlu-γGlu-γGlu-C18 diacid])[Aib]TRQRY-NH2 [Compound 48] | 0.5 |  |  |  | 77.2 | 11.6 |  |
| Y[Aib]EGTFTSDYSI[Aib]LEKQAQ[Aib]AFVRHLINK([εLys-γGlu-γGlu-γGlu-γGlu-γGlu-C20 diacid])[Aib]TRQRY-NH2 [Compound 59] |  | 16.7 |  |  |  | 5.7 |  |
